Test results published in the nanobody polyreactivity screen of Harvey et al. (2022).

Assay: yeast display, Sf9 membrane polyspecificity reagent, FACS + sequencing; frameworks hold sequencing errors
Summary of the method: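 Using colony PCR, genes from sorted yeast display clones were amplified, then sequenced on MiSeq at 2 × 250 and filtered by CDR length. The clones had been stained with 10% biotinylated, detergent-solubilized Sf9 membrane reagent for 1 hour at 4 °C and sorted by FACS into low and high (top ~1%) gates on anti-HA and streptavidin fluorescence. Polyreactivity labels come from the gate of origin.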

| Sequence | polyreactivity (PSR sort gate) |
| --- | --- |
| QVQLVESGGGLVQAGGSLRLSCAASGRTFGSYVMGWYRQAPGKERELVAAISWSSGITYYADSVKGRFTISRDNAKNTVYLQMNSLKPEDTAVYYCAARIWDSRAYYYWGQGTQVTVSS | high polyreactivity |
| QVQLVESGGGLVQAGGSLRLSCAASGRTFGTNAMGWYRQAPGKERELVAAIRRGGSRTYNADSVKGRFTISRDIAKNTVYLQMNSLKPEDTAVYYCAVDYYPYEVSYVRMDYWGQCTQVTVSS | low polyreactivity |
| QVQLVESGGGLVQAGGSLRLSCAASGRTFGTNAMGWYRQAPGKERELVAAISWRGTSTYYADSVKGRFTISRDNAKNTVYLQMNSLKPEDTAVYYCAADFSYTSYATRYQGDYWGQGTQVTVSS | low polyreactivity |
| QVQLVESGGGLVQAGGSLRLSCAASGRTFGTYAMGWYRQAPGKERELVAAINFSGGNTYYADSVKGLFTITRDNAKNTVYLQMNSLKPEDTAVYYCAKRGHSYSLDLYYIVTYDYWGQGTQVTVSS | low polyreactivity |
| QVQLVESGGGLVQAGGSLRLSCAASGRTFGVKAMGWYRQAPGKERELVAAITSGGTTNYADSVKGRFTISRDNAKNTFYLQMNSLKPEDTAVYYCAARSYYPRYGYWGQGTQVTVSS | high polyreactivity |
| QVQLVESGGGLVQAGGSLRLSCAASGRTFGVNAMGWYRQAPGKERELVAAIDSSGGSTYYADSVKGRFTISRDNAKNTVYLQMNSLKPEDTAVYYCAGPYRPDYDYWGQGTQVTVSS | high polyreactivity |
| QVQLVESGGGLVQAGGSLRLSCAASGRTFGVNAMGWYRQAPGKERELVAAISRSTGSTYYADSVKGRFTISRDNAKNTVYLQMNSLKPEDTAVYYCARDVYYRGYKYGYWGQGTQVTVSS | high polyreactivity |
| QVQLVESGGGLVQAGGSLRLSCAASGRTFGVNAMGWYRQAPGKERELVARNRVSGGRTYYADSVKGRFTISRDNAKNTVYLQMNSLKPEDTAVYYFNAGYTYNRVIWPYYYWGQGTQVTVSS | high polyreactivity |
| QVQLVESGGGLVQAGGSLRLSCAASGRTFGVYAMGWNRQPPGKERELVATITSVDRTTYADSVKGRFTFSRDNAKITVYLQMNSLKPEDTAVYYCAAVGRWPRYYYWGQGTQVTVSS | high polyreactivity |
| QVQLVESGGGLVQAGGSLRLSCAASGRTFGVYAMGWYRQAPGKERELVAAITGRGGSTYYADSVKGRFTISRDNAKNTVYLQMNSLKAEDTALYYCNAELYEYQSWDDYWGQGTQVTVSS | low polyreactivity |
| QVQLVESGGGLVQAGGSLRLSCAASGRTFGVYAMGWYRQAPGKERELVATIRTTGSTNYADSVKGRFTISRDNAKNTVYLQMNSLKTEDTAVYYCGARQRQSKYYPYTTFTYDYWGQGTQVTVSS | high polyreactivity |
| QVQLVESGGGLVQAGGSLRLSCAASGRTFGVYAMGWYRQAPGKESELVAAISRLAGNTYYADSVKGRFTISRDNAKNTVYLQMNSLKPEDTAVYYCAADFSRQYGYWGQGTQVTVSS | high polyreactivity |
| QVQLVESGGGLVQAGGSLRLSCAASGRTFGVYVKGWYRQAPGKERELVAAIDDSGGSTYYADSVKGRFTISRDNAKNTVYLQMNSLKPEDTAVYYCAKTKTQYLTSEIRFDYWGQGTQVTVSS | low polyreactivity |
| QVQLVESGGGLVQAGGSLRLSCAASGRTFGWYAMGWYRQAPGKERELVAAIRSSGGRTHYADSVKGRFTISRDNAKNTVYLQMNSLKPEDTAVYYCAARYSAAYYWGQGTQVTVSS | high polyreactivity |
| QVQLVESGGGLVQAGGSLRLSCAASGRTFGWYAMGWYRQAPGKERELVAAISLSGGSTYYADSVKGRFTISRDNAKNTVYLQMNSLKPEDTAVYYCNALILPTKMGYWGQGTQVTVSS | low polyreactivity |
| QVQLVESGGGLVQAGGSLRLSCAASGRTFGWYAMGWYRQAPGKERELVATITRGGSTYYADSVKGRFTISRDNAKNTVYLQMNSLKPEDTAVYYCNARRYLWLRRYDYWGQGTQVTVSS | high polyreactivity |
| QVQLVESGGGLVQAGGSLRLSCAASGRTFGYNALGWYRQAPGKERELVAAITRGGITHYADSVKGRFTISRDNAKNTVYIQKNSLKPEDTAGYYCAKRGPYYTDDEYYWGQGTQVTVSS | low polyreactivity |
| QVQLVESGGGLVQAGGSLRLSCAASGRTFGYNAMGWYIQAPGKERELVAAINWSGASTYYADYVKGRFTISRDNAKNTVYLQMNSLKPEDTAVYYCAADYSYIYGFDYWGQGTQVTVSS | low polyreactivity |
| QVQLVESGGGLVQAGGSLRLSCAASGRTFGYNAMGWYRQAAGKERELVAAISSSGGSTYYADSVKGRFTISRDNAKNTVYLQMNSLKPEDTAVYYCATQGYSWAHGSDYWGQGTQVTVSS | low polyreactivity |
| QVQLVESGGGLVQAGGSLRLSCAASGRTFGYNAMGWYRQAPGKERELVAAINWSGASTYYADSVKGRFTISRDNAKNTVYLQMNSLKPEDTAVYYCAADYSYIYGFDYWGQGTQVTLSS | low polyreactivity |
| QVQLVESGGGLVQAGGSLRLSCAASGRTFGYNAMGWYRQAPGKERELVATISWGGGSTYYADSVKGRFTISRDNAKNTVYLQMNSLKPEDTAVYYCNKVHYGRRHSYSGAIYGEDYWGQGTQVTVSS | high polyreactivity |
| QVQLVESGGGLVQAGGSLRLSCAASGRTFGYNAMGWYRQAPGKERELVAVITSSGGRTYADSVKGRFTISRDNAKNTVYLQMNSLKPEDTAVYYCATRTRLAQYSRGRYRYDYWGQGTQVTVSS | high polyreactivity |

| Sequence | polyreactivity (PSR sort gate) |
| --- | --- |
| QVQLVESGGGLVQAGGSLRLSCAASGRTFGYNAMGWYSQAPGKETELVAAINWSDASTYYADSVKGRFTISRDNAKNTVSLQMNSLKPEDTAVYYCAADYSYIYGFDYWGQGTLVTVSS | low polyreactivity |
| QVQLVESGGGLVQAGGSLRLSCAASGRTFGYYAMGWYRQAPGKEREFVAAISSSGGSTYYADSVKGRFTISRDNAKNTVYLQMNSLKPEDTAVYYCAARRNYFYGYYYWGQGTQVTVSS | high polyreactivity |
| QVQLVESGGGLVQAGGSLRLSCAASGRTFGYYAMGWYRQAPGKERELVAAISNSGGRTYYADSLKGRFTISRDNAKNTVYLQMNSLKPEDTAVYYCAAVVSYRFDYWGQGTQVTVSS | high polyreactivity |
| QVQLVESGGGLVQAGGSLRLSCAASGRTFGYYAMGWYRQAPGKERELVAAISSRGGSTYYADSVKGRFTISRDNAKNTVYLQMNSLKPEDTAVYYCNTRWTNIHPRYDYWGQGTQVTVSS | high polyreactivity |
| QVQLVESGGGLVQAGGSLRLSCAASGRTFGYYAMGWYRQAPGKERELVATITWSGGSTYYADSVKGRFTISRDNAKNTVYLQMNSLKPEDTAVYYCATDALYTYGYDYWGQGTQVTVSS | low polyreactivity |
| QVQLVESGGGLVQAGGSLRLSCAASGRTFGYYAMGWYRQAPGTERELVASISSRGGSSYYADSVKGRFTISRDNAKNTVYLQMNSLKPEDTAVYYCNAPSWSGSRTYYYWGQGTQVTVSS | high polyreactivity |
| QVQLVESGGGLVQAGGSLRLSCAASGRTFGYYAMGWYRQSPGKERELVAAITSGGRTYYADSVKGRFTISRDNAKNTVYLQMNSLKPEDTAVYYCNAPARWGSRVAWYEYWGQGTQVSVSS | high polyreactivity |
| QVQLVESGGGLVQAGGSLRLSCAASGRTFGYYVMGWYRQAPGKERELVAAITYTGGSTYYADSVKGRFTISRDNAKNTVYLQMNSLKPEDTAVYYCATSTYKPTYGYDYWGKGTQVTVSS | low polyreactivity |
| QVQLVESGGGLVQAGGSLRLSCAASGRTFHGYAMGWYRQAPGKERELVAAINASGGRTYYADSVKGRFTISRDNAKNTVYLQMNRLKPEDTAVYYCAVYSASFRYGLAYDYWGQGTQVTVSS | high polyreactivity |
| QVQLVESGGGLVQAGGSLRLSCAASGRTFHIYAMGWYRQAPGKERELVAAIRGRSGSTYYADSVKGRFTISRDNAKNTVYLQMNSLKPEDTAVYYCAAEYWGRYGAPEYDYWGQGTQVTVSS | high polyreactivity |
| QVQLVESGGGLVQAGGSLRLSCAASGRTFHRYVMGWYRQAPGKERELVAAISKSGGRTYYADSVKGRFTISRDNAKNTVYLQMNSLKPEDTAVYYYNARTAAGALYDYWGQGTQVTVSS | high polyreactivity |
| QVQLVESGGGLVQAGGSLRLSCAASGRTFHVYAMGWYRPAPGKERELVATITDGSTNYADSVKGRFTISRDNAKNTVYLQMNSLKPEDSAVYYCATVRAWIPSGDYEYWGQGTQVTVSS | low polyreactivity |
| QVQLVESGGGLVQAGGSLRLSCAASGRTFHYNAMGWYRQAPGKERELVAAITRSGGSTYYADSVKGRFTISRDNAKNTVYLQMNSLKPEDTAVYYCAAGWRSVSVRYYGPSDYWGQGTQVTVSS | low polyreactivity |
| QVQLVESGGGLVQAGGSLRLSCAASGRTFHYYAMGWYRQAPGKERELVAAISVSGGSTYYADSVKGRFTISRDNAKNTVYLQMNSLKPEDTAVYYCAADDYLVEHDYWGQGTQVTVSS | low polyreactivity |
| QVQLVESGGGLVQAGGSLRLSCAASGRTFHYYAMGWYRQAPGKERELVAAITRGGNTYYADSVKGRFTISRDNAKNTVYLQMNSLKPEDTAVYYCAKDNHFEAYRYDYWGQGTQVTVSS | low polyreactivity |
| QVQLVESGGGLVQAGGSLRLSCAASGRTFHYYVRGWSRQAPGKERELVAAISRSGGNTYYADSVKGRFTISRDNAKNTVYLQMNSLKPEDTAVNYCAAALSAYVKWDYYYWGQGTQVTVSS | low polyreactivity |
| QVQLVESGGGLVQAGGSLRLSCAASGRTFIAYAMGWYRPAPGKERALVAAITSSGGSTYYADSVKGRFTISRDNAKNTVYLQMNSLKPEDTAVFYCATDIYESPYFYYSYYYWGQGTQVTVSS | low polyreactivity |
| QVQLVESGGGLVQAGGSLRLSCAASGRTFIENAMGWYRQAPGKERELVAAISRGGSTYYADSVKGRFTMSRDNAKNTVYLQMNSLKPEDTAVYYCAADYFYLFHYSSQKYSRYEYWGQGTQVTVSS | low polyreactivity |
| QVQLVESGGGLVQAGGSLRLSCAASGRTFIGNAMGWYRQAPGKERELVATITSSAGTTYYADSVKGRFTISRDNAKNTVYLQMNSLKPEDTAVYYCAKRIWRSYPYRAYYSEFGYWGQGTQVTVSS | high polyreactivity |
| QVQLVESGGGLVQAGGSLRLSCAASGRTFIIYAMGWYRQAPGKERELVATISIGGSTYADSVKGRFTISRDNAKNTVYLQMNSLKPEDTAVYYCAARGRKYPPRDYWGQGPQVTVSS | high polyreactivity |
| QVQLVESGGGLVQAGGSLRLSCAASGRTFILYAMGWYRQAPWKERELVAAITRRGGRTYYADSVKGRFTISRDNAKNTVYLQMNSLKREDTAVYYCAADQYYYTQPSDMDYWGQGTQVTVSS | high polyreactivity |
